Laboratory results as given in US20020088015A1.

Target: GAL4-WT1 (WT1 fused to the DNA-binding domain of GAL4) (UniProt P04386)
Test: cell-based or functional assay

For “par-4 expressed from pCMV-par-4 in transfected cells”, the WT1-mediated transcriptional repression of pGAL4TKCAT (CAT assay) was 3 fold.
